Experimental findings from publication doi:10.1101/2021.04.27.441644 (bioRxiv, 2021) are described below.

To fix the notation:
B1: CLIP-170 S2-CG2-S3 fragment (H1 156-350) (domain or fragment)
chain: MVSSSPSTPSNIPQKPSQPAAKEPSATPPISNLTKTASESISNLSEAGSIKKGERELKIGDRVLVGGTKAGVVRFLGETDFAKGEWCGVELDEPLGKNDGAVAGTRYFQCQPKYGLFAPVHKVTKIGFPSTTPAKAKANAVRRVMATTSASLKRSPSASSLSSMSSVASSVSSRPSRTGLLTETSSRYARKISGT
B2: CLIP-170 CG2 fragment (H1 206-288) (domain or fragment)
chain: KKGERELKIGDRVLVGGTKAGVVRFLGETDFAKGEWCGVELDEPLGKNDGAVAGTRYFQCQPKYGLFAPVHKVTKIGFPSTTP
B3: CLIP-170 CG2-S3 fragment (H1 203-350) (domain or fragment)
chain: GSIKKGERELKIGDRVLVGGTKAGVVRFLGETDFAKGEWCGVELDEPLGKNDGAVAGTRYFQCQPKYGLFAPVHKVTKIGFPSTTPAKAKANAVRRVMATTSASLKRSPSASSLSSMSSVASSVSSRPSRTGLLTETSSRYARKISGT

In this experiment the target is filamentous actin (F-actin) (rabbit, UniProt P68135 1-377). Nature of the experiment: co-sedimentation.
The term Kd denotes the free concentration of one partner at which half of the binding sites on the other are occupied at equilibrium, for simple one-to-one binding. A low value points to higher affinity. In the case of B1, the equilibrium dissociation constant (Kd) was ~10 µM.

Consider B2, for which the Kd is ~90 µM.

Regarding B3, the Kd worked out at 20 µM.
